“And” between values parts separate entries of the source, which are not always exact repeats. Equal entries are not always repeated.
Key:
[1] = target: soluble monomeric FcγRIIIA-linker-AVITAG (158V allele) (human) (UniProt P08637); assay: BIAcore separate fit
[2] = target: soluble monomeric FcγRIIIA-linker-AVITAG (158V allele) (human) (UniProt P08637); assay: BIAcore
[3] = target: soluble monomeric FcγRIIIA-linker-AVITAG (158V allele) (human) (UniProt P08637); assay: ELISA
[4] = target: soluble FcγRIIB (form used in the ELISA not stated) (human) (UniProt P31994); assay: ELISA
[5] = target: FcγRIIB-Fc fusion protein (soluble dimeric FcγRIIB) (human) (UniProt P31994); assay: BIAcore separate fit
[6] = target: FcγRIIB-Fc fusion protein (soluble dimeric FcγRIIB) (human) (UniProt P31994); assay: BIAcore
[7] = target: soluble monomeric FcγRIIIA-linker-AVITAG (158V allele) (human) (UniProt P08637); assay: FACS, 0.1 µM biotinylated FcγRIIIA then 0.1 µM unlabeled FcγRIIIA
[8] = target: wild type CH1-CH3 Fc fusion protein displayed on yeast (pYD-CH1) (Saccharomyces cerevisiae; human) (UniProt P32781); assay: FACS titration 1.4 to 0.0006 µM, mean fluorescence, nonlinear regression

Chain of FcγRIIB-Fc fusion protein (soluble dimeric FcγRIIB) (human) (P31994 43-217): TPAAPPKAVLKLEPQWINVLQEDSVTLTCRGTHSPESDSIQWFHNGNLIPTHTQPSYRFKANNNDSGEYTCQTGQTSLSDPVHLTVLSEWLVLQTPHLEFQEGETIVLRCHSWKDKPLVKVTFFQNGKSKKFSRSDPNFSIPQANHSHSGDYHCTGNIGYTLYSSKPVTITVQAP
Chain of soluble monomeric FcγRIIIA-linker-AVITAG (158V allele) (human) (P08637 17-203 F176V limits assumed, form in doubt): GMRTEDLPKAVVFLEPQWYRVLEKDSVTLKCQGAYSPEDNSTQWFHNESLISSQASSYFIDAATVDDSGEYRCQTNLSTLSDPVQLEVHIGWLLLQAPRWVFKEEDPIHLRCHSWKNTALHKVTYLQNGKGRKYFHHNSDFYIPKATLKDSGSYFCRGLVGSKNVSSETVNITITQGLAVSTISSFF
Chain of soluble FcγRIIB (form used in the ELISA not stated) (human) (P31994 43-180 limits assumed, form in doubt): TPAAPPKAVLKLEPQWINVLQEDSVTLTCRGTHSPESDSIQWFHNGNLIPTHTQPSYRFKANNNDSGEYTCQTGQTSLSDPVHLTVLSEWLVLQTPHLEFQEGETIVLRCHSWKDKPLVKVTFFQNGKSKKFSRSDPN
Chain of P396L Fc variant displayed on the yeast surface (P32781 19-87, stated change not applied): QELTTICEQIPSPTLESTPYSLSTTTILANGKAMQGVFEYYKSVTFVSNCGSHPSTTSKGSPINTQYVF

Kd [1] | Kd [2] | Substance | also measured
0.0754 µM | 0.0754 µM | ch4-4-20 K288M, K334E (from UniProt P01857 1-330) (antibody) | –
– | 0.0552 µM | ch4-4-20 K334E, T359N, T366S (from UniProt P01857 1-330) (antibody) | –
0.264 µM | – | ch4-4-20 Mut 6 (S219V) (from UniProt P01857 1-330) (antibody) | ELISA, OD [3]: 0.6 OD
– | 0.195 µM | ch4-4-20 E293V, Q295E, A327T (from UniProt P01857 1-330) (antibody) | –
– | 0.062 µM | ch4-4-20 P247L, N421K (from UniProt P01857 1-330) (antibody) | –
– | 0.125 µM | ch4-4-20 Y319F, P352L, P396L (from UniProt P01857 1-330) (antibody) | –
– | 0.154 µM and 0.18 µM | ch4-4-20 K248M (from UniProt P01857 1-330) (antibody) | –
– | – | chimeric 4-4-20 anti-fluorescein monoclonal antibody, wild type Fc | ELISA binding relative to wt [3]: 1 x; ELISA, OD [3]: 0.5 OD; ELISA binding relative to wt [4]: 1 x; ELISA, OD [4]: 0.4 OD; Kd [5]: 0.0614 µM; koff [5]: 0.085 s⁻¹; Kd [6]: 0.094 µM; koff [6]: 0.094 s⁻¹
0.0486 µM | – | ch4-4-20 Mut25(0225) (MgFc 25: E333A, K334A, S298A) (from UniProt P01857 1-330) (antibody) | –
– | – | P396L Fc variant displayed on the yeast surface (from UniProt P32781 19-87) | loss of cell staining after 1 minute with unlabeled receptor [7]: 50%
0.128 µM | 0.128 µM | ch4-4-20 K288N, A330S, P396L (from UniProt P01857 1-330) (antibody) | –
– | – | soluble FcγRIIIA tetrameric complex (from UniProt P08637 17-203) (receptor) | Kd [8]: 0.006 µM
0.0702 µM | 0.0702 µM | ch4-4-20 K334E, R292L (from UniProt P01857 1-330) (antibody) | –
– | 0.072 µM | ch4-4-20 G316D, A378V, D399E (from UniProt P01857 1-330) (antibody) | –
0.214 µM | 0.16 µM | ch4-4-20 V379M (from UniProt P01857 1-330) (antibody) | –
– | 0.178 µM | ch4-4-20 H268N, P396L (from UniProt P01857 1-330) (antibody) | –

Reference: patent US20050064514A1
